Publication PMC8170886

Target: bacteriophage P22 coat protein (bacteriophage P22) (UniProt P26747)
Assay: densitometry of SDS-PAGE of the purified particles; purified ASNase-P22 nanoreactors from different chromatograms, bands quantified with ImageJ; numbers per capsid calculated on 420 CP

Substance “ASNase-SP chimeric protein (E. coli asparaginase II fused to the bacteriophage P22 scaffold protein) (from UniProt P00805 23-348) (enzyme)” has an ASNase-SP tetramers per capsid of 420 CP (tetramers per capsid) of 110, a monomers per capsid (monomers per capsid) of 448 and a percent ASNase-SP in the nanoreactor's protein (densitometry) of 41.6%. For the same substance, the percent CP in the nanoreactor's protein (densitometry) was 58.4%.
